From paper PMC8989523 (Nucleic Acids Research, 2022)

Target: the molecule itself
Assay: dynamic light scattering

B1: hPXR LBD (residues 140–434) with an N-terminal His tag and an SRC-1 fragment tethered at the C-terminus (domain or fragment)
chain: VQGLTEEQRMMIRELMDAQMKTFDTTFSHFKNFRLPGVLSSGCELPESLQAPSREEAAKWSQVRKDLCSLKVSLQLRGEDGSVWNYKPPADSGGKEIFSLLPHMADMSTYMFKGIISFAKVISYFRDLPIEDQISLLKGAAFELCQLRFNTVFNAETGTWECGRLSYCLEDTAGGFQQLLLEPMLKFHYMLKKLQLHEEEYVLMQAISLFSPDRPGVLQHRVVDQLQEQFAITLKSYIECNRPQPAHRFLFLKIMAMLTELRSINAQHTQRLLRIQDIHPFATPLMQELFGITGSGGSGGSSHSSLTERHKILHRLLQEGSPS
stoichiometry N: 2
